Measured values published in article doi:10.1101/2021.02.17.431757 (bioRxiv, 2021).

Biological target: GST-TopBP1 (aa 32-1522) His, recombinant (UniProt Q92547 32-1522)
Experiment: pull-down

GST-TopBP1 (aa 32-1522) His, recombinant, sequence (Q92547 32-1522): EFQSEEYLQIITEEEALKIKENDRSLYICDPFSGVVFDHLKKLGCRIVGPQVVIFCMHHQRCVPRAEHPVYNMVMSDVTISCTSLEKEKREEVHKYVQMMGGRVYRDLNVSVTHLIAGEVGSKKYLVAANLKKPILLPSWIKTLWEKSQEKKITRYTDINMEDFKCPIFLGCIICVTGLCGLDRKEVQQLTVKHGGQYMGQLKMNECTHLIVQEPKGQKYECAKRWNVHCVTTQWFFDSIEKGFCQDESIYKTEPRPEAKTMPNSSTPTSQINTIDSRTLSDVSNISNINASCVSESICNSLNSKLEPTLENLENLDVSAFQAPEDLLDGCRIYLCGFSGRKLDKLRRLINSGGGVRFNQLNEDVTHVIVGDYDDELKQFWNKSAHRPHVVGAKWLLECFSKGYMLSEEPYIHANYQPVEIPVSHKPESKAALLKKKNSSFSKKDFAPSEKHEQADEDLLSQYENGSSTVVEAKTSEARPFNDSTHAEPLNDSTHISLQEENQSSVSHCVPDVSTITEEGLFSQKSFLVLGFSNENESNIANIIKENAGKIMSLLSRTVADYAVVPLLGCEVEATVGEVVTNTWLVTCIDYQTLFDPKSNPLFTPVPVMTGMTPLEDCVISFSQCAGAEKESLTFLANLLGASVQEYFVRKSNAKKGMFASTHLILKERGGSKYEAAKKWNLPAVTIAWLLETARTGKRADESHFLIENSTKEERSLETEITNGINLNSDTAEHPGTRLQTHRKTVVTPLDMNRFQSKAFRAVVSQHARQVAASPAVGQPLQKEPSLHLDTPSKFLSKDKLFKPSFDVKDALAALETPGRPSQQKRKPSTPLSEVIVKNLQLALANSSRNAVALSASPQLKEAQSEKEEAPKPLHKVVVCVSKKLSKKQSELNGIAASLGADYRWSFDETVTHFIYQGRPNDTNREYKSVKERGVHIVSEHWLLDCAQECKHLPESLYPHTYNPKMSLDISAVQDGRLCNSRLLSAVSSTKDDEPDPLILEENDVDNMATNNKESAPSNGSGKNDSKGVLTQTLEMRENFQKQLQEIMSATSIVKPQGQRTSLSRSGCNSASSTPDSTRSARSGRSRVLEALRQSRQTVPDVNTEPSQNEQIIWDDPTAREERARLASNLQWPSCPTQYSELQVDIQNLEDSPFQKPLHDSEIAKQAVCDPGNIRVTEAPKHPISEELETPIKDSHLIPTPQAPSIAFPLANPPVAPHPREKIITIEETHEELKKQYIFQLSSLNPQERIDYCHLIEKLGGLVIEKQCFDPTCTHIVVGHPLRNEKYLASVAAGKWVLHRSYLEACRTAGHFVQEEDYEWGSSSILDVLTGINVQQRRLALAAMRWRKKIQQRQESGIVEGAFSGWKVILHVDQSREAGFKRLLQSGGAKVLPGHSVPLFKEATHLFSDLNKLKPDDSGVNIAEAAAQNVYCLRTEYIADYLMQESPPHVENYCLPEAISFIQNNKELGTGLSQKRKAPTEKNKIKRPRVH

B1: His-E2-S23D (amino acids 1-200), recombinant (domain or fragment, human papillomavirus 16 (HPV16), UniProt P03120 1-200, looked up)
chain: METLCQRLNVCQDKILTHYENDDTDLRDHIDYWKHMRLECAIYYKAREMGFKHINHQVVPTLAVSKNKALQAIELQLTLETIYNSQYSNEKWTLQDVSLEVYLTAPTGCIKKHGYTVEVQFDGDICNTMHYTNWTHIYICEEASVTVVEGQVDYYGLYYVHEGIRTYFVQFKDDAEKYSKNKVWEVHAGGQVILCPTSVF
binding result: binds
